Article PMC8786652 (Cell reports, 2022)

B1: CV3-13 (hIgG1) (antibody, V domains shown)
VH: QVQLQQSGPGLVKPSQTLSLTCTVAGGSISSGTYYWSWIRQPAGKGLEWIGRIYTSGSANYNPSLKSRVTISVDTSKNQFSLRLSSVTAEDTAVYYCAREYSSSYYYFYYMDVWGKGTTVTVSS
VL: AIRMTQSPSSLSASVGDRVTITCQASQDISNYLNWYQQKPGKAPKLLIYVASNLETGVPSRFSGSGFGTDFTFTISSLQPEDIATYYCQQFDNLPYTFGQGTKLEIK
B2: CV3-13 LALA (hIgG1) (antibody, V domains shown)
VH: B1 VH
VL: B1 VL
B3: CV3-13 […] (hIgG1) (antibody, V domains shown)
VH: B1 VH
VL: B1 VL

Key:
[1] = target: SARS-CoV-2 Spike WT (Wuhan-Hu-1 reference strain) (SARS-CoV-2, Wuhan-Hu-1, UniProt P0DTC2); assay: flow cytometry on cells
[2] = target: SARS-CoV-2 Spike on CEM.NKr-Spike cells (SARS-CoV-2, Wuhan-Hu-1 (assumed for the …, UniProt P0DTC2)); assay: flow cytometry on cells
[3] = target: SARS-CoV-2 S1 domain C-His tag protein, from HEK293 cells (SARS-CoV-2, Wuhan-Hu-1 (strain not …, UniProt P0DTC2)); assay: SPR

Binder | binding result [1] | binding result [2] | binding result [3]
B1 | binds | binds | binds
B2 | binds | binds | 
B3 | binds | binds | 
